These results are taken from patent publication US20230416357A1 (UCB, published 2023).

Like-named read-outs stand apart in the source and are kept apart here.

Assay [1] addresses T1, Human IL22 (human, UniProt Q9GZX6 34-179).
T1 construct: Soluble human IL22 used in the Biacore and cell assays; also called interleukin 22
T1 sequence: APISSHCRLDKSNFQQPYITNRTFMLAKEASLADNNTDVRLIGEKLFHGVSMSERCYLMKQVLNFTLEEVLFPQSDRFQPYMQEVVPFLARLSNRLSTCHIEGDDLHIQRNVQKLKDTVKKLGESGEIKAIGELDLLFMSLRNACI
In words: SPR Biacore 8K; single experiment. (SPR reads the build-up and loss of mass on a sensor chip optically.)

Assay [2] deals with T1, Human IL22. As to the kind of experiment: SPR Biacore T200; antibody captured on anti-human Fab (280 RU), IL22 injected at 20 nM.
Assay [3] addresses T1, Human IL22. As to the kind of experiment: cell-based or functional assay.
In assay [4] the target is T1, Human IL22. In words: cell-based or functional assay. The source holds these as a separate data set.
Assay [5] concerns the target T1, Human IL22. As to the kind of experiment: cell-based or functional assay. The source holds these as a separate data set.

B1: 11041gL13gH14 Fab (Fab, V domains shown)
VH: EVQLVESGGGLVQPGGSLRLSCAVSGFSLSSYAMIWVRQAPGKGLEWIGIIDIEGSTYYASWAKGRFTISRDNSKNTVYLQMNSLRAEDTAVYYCARDRFVGVDIFDPWGQGTLVTVSS
VL: AVQLTQSPSSLSASVGDRVTITCQASEDIYTNLAWYQQKPGKAPKLLIYWASTLASGVPSRFSGSGSGTDFTLTISSLQPEDFATYYCQASVYGNAADSRYTFGGGTKVEIKR
notes: Humanized Fab; also called VR11041
As a reminder, the Kd is the equilibrium constant for the complex coming apart. Lower therefore signals tighter binding. B1 displayed a Kd with Human IL22 [1] below 0.1 nM. In the assay with Human IL22 [2], the IL22 Binding at 20 nM (RU) was determined as 40 RU. The “IC50 (read off the curve), inhibition of IL-22-induced S100A7 release from human primary keratinocytes (NHEK)” value with Human IL22 [3] is around 10 nM. In addition, in the assay with Human IL22 [4], the “IC50 (M), Geomean; COLO205 IL-10 release assay” value was 4.27e-11 M.

B2: rabbit 11041 Fab (Fab, V domains shown)
VH: QSVEESGGRLVTPGTPLTLTCTVSGFSLSSYAMIWVRQAPGEGLEWIGIIDIDGSTYYASWAKGRFTISRTSTTVDLKITSPTTGDTATYFCARDRFVGVDIFDPWGPGTLVTVSS
VL: AVVLTQTASPVSAPVGGTVTIKCQASEDIYTNLAWYQQKPGQPPKLLIYWASTLASGVPSRFKGSGSGTEFTLTISDLECADAATYYCQACVYGNSADSRYTFGGGTEVVVK
In the case of B2, the “IC50 (M), Geomean; COLO205 IL-10 release assay” value with Human IL22 [5] was 5.68e-11 M.
